{
  "source": "IntAct's records for PubMed 17057713",
  "parents": {"B1": {"name": "A-type potassium channel modulatory protein KCNIP1 (Homo sapiens), Q9NZI2 (parent)", "chain": "MGAVMGTFSSLQTKQRRPSKDIAWWYYQYQRDKIEDELEMTMVCHRPEGLEQLEAQTNFTKRELQVLYRGFKNECPSGVVNEDTFKQIYAQFFPHGDASTYAHYLFNAFDTTQTGSVKFEDFVTALSILLRGTVHEKLRWTFNLYDINKDGYINKEEMMDIVKAIYDMMGKYTYPVLKEDTPRQHVDVFFQKMDKNKDGIVTLDEFLESCQEDDNIMRSLQLFQNVM", "partner": "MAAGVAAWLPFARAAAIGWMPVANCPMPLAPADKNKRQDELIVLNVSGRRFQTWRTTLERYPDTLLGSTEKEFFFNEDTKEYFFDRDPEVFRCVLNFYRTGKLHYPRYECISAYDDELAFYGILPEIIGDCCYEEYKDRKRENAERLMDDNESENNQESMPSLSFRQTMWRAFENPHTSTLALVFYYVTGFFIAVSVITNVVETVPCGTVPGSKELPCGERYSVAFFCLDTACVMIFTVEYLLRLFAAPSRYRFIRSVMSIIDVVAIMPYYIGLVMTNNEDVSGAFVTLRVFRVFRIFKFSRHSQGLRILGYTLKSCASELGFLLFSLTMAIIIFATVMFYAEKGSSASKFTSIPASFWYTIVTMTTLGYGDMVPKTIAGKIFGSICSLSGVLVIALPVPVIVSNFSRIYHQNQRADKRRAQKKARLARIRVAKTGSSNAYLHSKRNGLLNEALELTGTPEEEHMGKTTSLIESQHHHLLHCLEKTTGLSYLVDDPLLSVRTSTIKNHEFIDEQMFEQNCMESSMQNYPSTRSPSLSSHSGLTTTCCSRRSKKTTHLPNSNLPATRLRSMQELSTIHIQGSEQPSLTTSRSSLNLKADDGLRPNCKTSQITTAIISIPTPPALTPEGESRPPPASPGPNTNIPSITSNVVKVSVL"}},
  "data": [
    {"variants_of": "B1", "conditions": "with kcnd3_rat Kcnd3, Q62897", "values": [
      {"variant": "MGAVMGTFSSLQTKQRRPSKDIAWWYYQYQRDKIEDELEMTMVCHRPEGLEQLEAQTNFTKRELQVLYRGFKNECPSGVVNEDTFKQIYAQFFPHGDASTYAHYLFNAFDTTQTGSVKFEDFVTALSILLRGTVHEKLRWTFNLYAINKDGYINKEEMMDIVKAIYDMMGKYTYPVLKEDTPRQHVDVFFQKMAKNKDGIVTLDEFLESCQEDDNIMRSLQLFQNVM", "note": "[D146A;D194A]", "effect of a mutation on the interaction": "decreasing interaction strength"}
    ]}
  ]
}
